Laboratory results from patent publication US20230357378A1 (NEURACLE SCIENCE, published 2023).

Columns and labels:
Peptide F1-BSA = target: T1, Peptide F1-BSA (C-terminal Cys conjugated to BSA); test: Western blot, 300 ng antigen per well, anti-rabbit IgG (Fc specific)-HRP 1:4000
T1 construct: BSA-conjugated human FAM19A5 peptide fragment F1, lane 3; size printed as 105 kDa
T1 peptide: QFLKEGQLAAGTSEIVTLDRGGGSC

Peptide F4-BSA = target: T2, Peptide F4-BSA (C-terminal Cys conjugated to BSA); test: as above
T2 construct: BSA-conjugated human FAM19A5 peptide fragment F4, lane 6; size printed as 106 kDa
T2 peptide: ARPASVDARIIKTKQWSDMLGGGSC

Peptide F6-BSA = target: T3, Peptide F6-BSA (C-terminal Cys conjugated to BSA); test: as above
T3 construct: BSA-conjugated human FAM19A5 peptide fragment F6, lane 8; size printed as 103 kDa
T3 peptide: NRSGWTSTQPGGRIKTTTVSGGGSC

FAM19A1-flag = test: immunoblot of vector and flag-tagged FAM19A1 to FAM19A5 samples

B1: 1-65-scFv-rabbit-Fc-SSS (Fc fusion)
VH: AVTLDESGGGLQTPGGALSLVCKASGFTFSSYQMGWVRQAPGKGLEWVGVINKSGSDTSYGSAVKGRATISRDNGQSTVRLQLNNLRAEDTGTYFCAKGSASYITAATIDAWGHGTEVIVSS
VL: ALTQPSSVSANPGETVKITCSGGGSSGYGYGWYQQKSPSSAPLTVIYWNDKRPSDIPSRFSGSKSGSTHTLTITGVQAEDEAVYFCGNDDYSSDSGYVGVFGAGTTLTVL
notes: scFv of 1-65 fused to rabbit Fc ('SSS'), used as primary antibody in the Western blot; also called anti-FAM19A5 antibody 1-65; monoclonal antibody clone 1-65
Peptide F1-BSA
  binding result: no binding (tested: 2 ug/ml)
Peptide F4-BSA
  binding result: no binding (tested: 2 ug/ml)
Peptide F6-BSA
  binding result: no binding (tested: 2 ug/ml)

B2: chimeric anti-FAM19A5-IgG2/4 monoclonal antibody (1-65) (antibody, V domains shown)
VH: B1 VH
VL: B1 VL
notes: also called anti-FAM19A5-IgG2/4 antibody
FAM19A1-flag
  binding result: no binding
